# According to patent US20240287172A1 (SCIRHOM, published 2024):
# T1: hiR1-FL-WT-T7 (human, UniProt Q96CC6 1-855)
# T1 construct: on MEF-DKO cells
# T1 sequence: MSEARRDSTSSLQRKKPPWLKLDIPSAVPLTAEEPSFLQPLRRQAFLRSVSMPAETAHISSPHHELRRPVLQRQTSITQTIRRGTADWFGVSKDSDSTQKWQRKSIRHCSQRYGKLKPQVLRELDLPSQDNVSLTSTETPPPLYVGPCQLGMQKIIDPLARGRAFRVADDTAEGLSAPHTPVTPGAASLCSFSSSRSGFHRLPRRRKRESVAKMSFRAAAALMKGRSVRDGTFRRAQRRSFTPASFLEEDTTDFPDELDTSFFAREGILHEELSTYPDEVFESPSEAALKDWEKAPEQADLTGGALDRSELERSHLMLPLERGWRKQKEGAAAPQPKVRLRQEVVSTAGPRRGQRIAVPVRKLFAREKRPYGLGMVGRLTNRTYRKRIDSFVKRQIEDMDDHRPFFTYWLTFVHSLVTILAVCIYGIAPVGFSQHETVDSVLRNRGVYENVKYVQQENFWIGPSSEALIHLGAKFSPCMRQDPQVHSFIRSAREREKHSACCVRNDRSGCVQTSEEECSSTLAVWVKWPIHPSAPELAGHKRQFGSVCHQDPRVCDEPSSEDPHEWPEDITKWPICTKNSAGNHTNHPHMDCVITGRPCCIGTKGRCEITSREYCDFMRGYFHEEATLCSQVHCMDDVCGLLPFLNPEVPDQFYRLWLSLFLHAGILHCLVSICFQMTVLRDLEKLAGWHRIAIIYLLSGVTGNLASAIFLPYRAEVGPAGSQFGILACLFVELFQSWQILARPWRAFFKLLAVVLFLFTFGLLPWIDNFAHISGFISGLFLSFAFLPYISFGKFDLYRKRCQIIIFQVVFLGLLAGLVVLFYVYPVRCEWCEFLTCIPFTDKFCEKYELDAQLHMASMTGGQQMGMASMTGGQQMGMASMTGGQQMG
# T2: human iRhom1, endogenously expressed (human, UniProt Q96CC6 1-855)
# T2 construct: also called iRhom1 on RH-30 cells
# T2 sequence: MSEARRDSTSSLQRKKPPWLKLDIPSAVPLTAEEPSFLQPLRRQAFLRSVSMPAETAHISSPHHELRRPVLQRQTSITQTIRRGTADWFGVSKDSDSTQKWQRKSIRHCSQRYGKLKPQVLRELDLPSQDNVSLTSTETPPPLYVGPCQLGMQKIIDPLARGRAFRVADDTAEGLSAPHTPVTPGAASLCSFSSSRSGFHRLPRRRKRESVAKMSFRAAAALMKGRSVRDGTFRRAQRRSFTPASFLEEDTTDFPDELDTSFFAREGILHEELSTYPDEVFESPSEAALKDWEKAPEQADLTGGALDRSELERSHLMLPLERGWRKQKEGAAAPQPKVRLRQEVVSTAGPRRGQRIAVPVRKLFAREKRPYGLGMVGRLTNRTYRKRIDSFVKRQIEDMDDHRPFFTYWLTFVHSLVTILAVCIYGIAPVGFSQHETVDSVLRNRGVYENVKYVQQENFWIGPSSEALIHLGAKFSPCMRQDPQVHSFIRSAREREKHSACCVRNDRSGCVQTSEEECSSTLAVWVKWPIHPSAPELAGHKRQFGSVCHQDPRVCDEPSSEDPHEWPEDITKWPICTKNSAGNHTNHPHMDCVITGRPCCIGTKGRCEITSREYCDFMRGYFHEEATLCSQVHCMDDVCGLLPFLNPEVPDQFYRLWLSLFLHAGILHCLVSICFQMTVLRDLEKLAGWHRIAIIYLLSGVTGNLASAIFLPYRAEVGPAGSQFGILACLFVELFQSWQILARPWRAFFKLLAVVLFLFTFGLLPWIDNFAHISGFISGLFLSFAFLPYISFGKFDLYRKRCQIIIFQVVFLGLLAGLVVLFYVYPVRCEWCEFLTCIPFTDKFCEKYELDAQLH
# B1: antibody 48 (antibody, V domains shown)
# VH: QVQLQQSGTELVRPGTSVKVSCKASGYAFTNYLIEWVKQRPGQGLEWIGVINPGSGFTKYNEKFKGKATLTADKSSSTVYMHLSSLTSEDSAVYFCARGLYRAMDYWGQGTSVTVSS
# VL: DIQMTQSPASQSASLGESVTITCLASQTIATWLAWYQQKPGKSPQLLIYGATTLADGVPSRFSGGGSGTKFSFKISSLQAEDFVSYYCQQLYSTPYTFGGGTKLEIK
# notes: mouse IgG, kappa light chain; also called clone #48; purified antibody 48
# B2: antibody 16 (antibody, V domains shown)
# VH: QVTLKESGPGILQPSQTLSLTCSFSGFSLSTFALGVGWIRQPSGRGLEWLAHIWWDDDKYYNPALKSRLTISKDTSKNHVFLKIANVDTADTATYYCARITTYYYGMDYWGQGTSVTVSS
# VL: DIVLSQSPATLSVTPGDSVSLFCRASQSIGNHLHWYQQESHASPRLLIKYASQSISGIPSRFSGSGSGTDFTLSINSVETEDFGMYFCQQSYNWPLTFGAGTKLELK
# notes: mouse IgG, kappa light chain; also called clone #16; purified antibody 16
# Tests used:
# hiR1-FL-WT-T7 = molecular target: T1, hiR1-FL-WT-T7; assay: FACS, MEF-DKO-hiR1-FL-WT-T7 cells
# [1] = molecular target: T2, human iRhom1, endogenously expressed; assay: FACS on RH-30 cells (iRhom1-positive, not iRhom2-positive)
binder,measurement,setting,value
B1,binding result,hiR1-FL-WT-T7,no binding (tested: 3 µg/ml)
B2,binding result,[1],no binding (tested: 3 µg/ml)
